{"source": "patent US7138254", "tested_on": "cytochrome C"}
{"substance": "biotin conjugated trypsin", "values": [{"measurement": "peptide maps (capillary electrophoresis of FITC labeled digest), three runs over two weeks", "result": "all capillaries of the treated cassettes have the same peptide maps in the three runs"}, {"measurement": "peptide profiles of digested cytochrome C (capillary electrophoresis of FITC labeled digest)", "result": "the peptide profiles of digested cytochrome C obtained from this approach and the approach described in Example 26 are consistent and reproducible"}]}
{"substance": "trypsin", "values": [{"measurement": "peptide maps (capillary electrophoresis of FITC labeled digest), three runs over two weeks", "result": "the control capillary cassette showed some protein digestion only in the first run, but no protein digestion in the second or the third run"}, {"measurement": "peptide profiles of digested cytochrome C (capillary electrophoresis of FITC labeled digest)", "result": "The obtained peptide profiles of digested cytochrome C are consistent and reproducible between each run and comparable to data obtained with full volume reactions"}]}
